The values below come from patent US20210132065A1, “MAMMALIAN MHC PEPTIDE DISPLAY AS AN EPITOPE SELECTION TOOL FOR VACCINE DESIGN” (ETH Zürich, priority 2018, published 2021).

Entries after “also recorded” stand apart in the source; their conditions may differ. Read-outs that look alike come from different tables or passages of the source. Where no end group is shown, it is not given here.

The target in one experiment is HLA-DRB1_15 (Homo sapiens, UniProt P01903+P01911). The experiment is classed as cell-based. The conditions noted are these: for MCR surface expression: peptide covalently linked to beta chain, anti-HLA-DR APC antibody, FACS.
The target in the next experiment is HLA-DRB5_1 (Homo sapiens, UniProt P01903+Q30154). The experiment is classed as cell-based. The conditions noted are these: for MCR surface expression: peptide covalently linked to beta chain, anti-HLA-DR APC antibody, FACS.
Where [1] appears, read: FIG. 6, anti-CD3e or anti-HLA-DR PE antibodies, peptides containing the core epitope with different flanking regions.

Chain of HLA-DRB5_1 (Q30154 30-227 limits assumed): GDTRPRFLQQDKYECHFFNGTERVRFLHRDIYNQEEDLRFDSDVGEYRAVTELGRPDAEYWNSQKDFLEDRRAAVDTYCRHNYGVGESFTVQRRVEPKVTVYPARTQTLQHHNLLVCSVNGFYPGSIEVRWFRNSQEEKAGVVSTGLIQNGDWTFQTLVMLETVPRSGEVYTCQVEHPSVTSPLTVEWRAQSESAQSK
Chain of HLA-DRB5_1 (P01903 26-216 limits assumed): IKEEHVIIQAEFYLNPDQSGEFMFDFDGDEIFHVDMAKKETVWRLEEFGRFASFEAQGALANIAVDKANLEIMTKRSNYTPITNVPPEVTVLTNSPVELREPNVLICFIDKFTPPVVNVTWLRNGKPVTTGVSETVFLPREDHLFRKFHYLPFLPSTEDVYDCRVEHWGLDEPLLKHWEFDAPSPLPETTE
Chain of HLA-DRB1_15 (P01911 30-227 limits assumed): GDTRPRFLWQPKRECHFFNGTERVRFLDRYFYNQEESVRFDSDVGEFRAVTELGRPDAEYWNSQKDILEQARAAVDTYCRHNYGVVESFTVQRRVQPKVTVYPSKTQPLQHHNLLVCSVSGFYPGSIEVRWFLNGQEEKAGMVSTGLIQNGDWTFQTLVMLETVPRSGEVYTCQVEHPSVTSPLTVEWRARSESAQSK
Chain of HLA-DRB1_15 (P01903 26-216 limits assumed): as the sequence (P01903 26-216 limits assumed) above

Regarding “MP162-72: influenza Matrix Protein 1-derived peptide comprising amino acids 62-72, covalently linked to the HLA beta chain of the MCR (FVFTLTVPSER; also: covalently linked to HLA beta chain of the MCR; UniProt P03485 62-72, looked up, fragment)”, the MCR surface expression result in the experiment with HLA-DRB1_15 was “not the other HLAs tested”; with HLA-DRB5_1, “efficient expression”.

For the substance “MP1103-120: influenza Matrix Protein 1 peptide, amino acids 103-120, covalently linked to the HLA beta chain of the MCR (LKREITFHGAKEISLSYS; also: covalently linked to HLA beta chain of the MCR; UniProt P03485 103-120, looked up, fragment)”, the MCR surface expression entry in the experiment with HLA-DRB1_15 is recorded as “detectable at very low levels; also recorded: very low MCR expression”; in the experiment with HLA-DRB1_15 (listed as MP1103-121) it was “low surface expression”; in the experiment with HLA-DRB5_1 it was “barely detected; also recorded: not expressed at all”; in the experiment with HLA-DRB5_1 (listed as MP1103-121), “not to bind at all”.

For the substance “MP1107-117: core epitope of influenza Matrix Protein 1, amino acids 107-117, tested within peptides with different flanking regions (ITFHGAKEISL; UniProt P03485 107-117, looked up, fragment)”, the entries for the “presentation (MCR surface expression)” value with HLA-DRB1_15 (setting [1]) and with HLA-DRB5_1 (setting [1]) were “not by HLA-DRB1_15” and “nor HLA-DRB5_1”, respectively.
